The data set in a line: soluble on expression in E. coli; label from the status in PepcDB or PDB records.
In the case of “MANHAKLVDQEIYRSPVDDFELNYQEYLNDDDDDKQEAPVAVSKAPKGKGSNHGLGCRMKGLFDGFGGTDLKTIMRHLRRRRPKSGQALTNFMLSGNMEKVVDQHVKDFVHHFGRINPENGRIMGALRGNDFFNFGGLHNNLGNTGKVYLDNLMKGKCGKKRKVHKFKPIVVEELDFGAPKPAVPATPKAPVAPVAPVIPAPAVTPQKPKVDEPTYADSVSDFGLDFETEREKCLRNKTLFEDPEFPATAASLYYRTPPRDRIIWKRPGEIIANPQLITQGESRFDVKQGALGDCWFLAALANITLYDALFYRIVPPNQSFTENYAGIFHFQFWHYGKWVDVVVDDRLPTVNNQLYYLHSADNTEFWSALVEKAYAKLHGGYENLDGGTTAEALEDFTGGLTEYFDLRKSEKAAVLAALVKGMEMGSLFGCSIDADANIKEAQLRNGLVCGHAYSITAIHSITYYGEDTTLLRLRNPWGNEKEWNGAWSDGSSEWSKIDEATKKQIDVQFARDGEFWMSFEDFFSNFTQMEVCNLTAEIFDEIAEMTGVNRATETVEEEHQWHEIMEDGEWSSKHSWRLQQQPIYLPQEPSILHFLHSTTILY”, the “soluble on expression in E. coli” value is on record as “not soluble”.

In the case of “MTEMKILIVTLTYIEKSIIDEIVNNLSSYGLEVDILLDSRKYLPISAFNWERLQYDAEKVLSFLKSIHDFNYDSIIFLADSDGYIDGYNFVFGLTIDNFAIIFLHRLREEFYNRKPDLDLFMKRVVKEVTHEVGHTLGLSHCNTTGCVMNFSNSVEDVDKKQAKFCKNCAHKIEKLSKYLQQKLEHHHHHH”, the “soluble on expression in E. coli” value is “not soluble”.

In the case of “MGSDKIHHHHHHASPKKVAPEKKGVETINRATAEAHIGFLACDELEGREAGWKGGRIAGNYIISCLKQMGIKPLDGDYIQPFDVYHAERQVKGKRWQVHPDSIAELKKVVYQKLALRNILGKIEGKNPNEIVIIGAHYDHIGYDPMLEGDQIYNGADDNASGVQAVLQVARAFLATGEQPERTVIFAFWDGEEKGLLGSRYFAMNYPDIKKVKGYLNYDMIGRNNREDQPDYFVYFYTAAHQAFGDWLKKDIEDYRLQLSPDYRAWDNPVGGSDNGTFAKLGIPIIWYHTDAHPDYHLPGDETQKINWLKIVDITKASFLAMWKLANEKKY”, the “soluble on expression in E. coli” value is recorded as “not soluble”.

On to “MGSDKIHHHHHHMNPNFTWDDLQFFLAVARTGQLSTAARRLRTSHATVSRRIDRLEFALKVKLFERNPRGYVLTTMGQRFVETAERMERETEQLQLDISDGMTAQRGVVRLSTLEGFGNFFLADRLGEFAERYPNISLELVAIQQIMSLSRKEADIAVALAAPKAGAYHAEVLTPYTLHVYGARSYLAGQPPIRTRSDLGSHRFVGYIDDMIFTPGLDYLGEIQPGLRAHFQSSSILTQLKAVRQGLGLCVLPHFMAKDEPNLEIVLPDEIELKRTYWLICHRDLIAIPRVRAVRDFLVDAAVENRGCFLRETPFALTGPRRVLERQ”, for which the “soluble on expression in E. coli” value is given as “not soluble”.

As to “MDVDLAAPMSESEKLLYRSNLLGSDKRITNYGGGNTSAKVIETDPLTGEPAEVLWVKGSGGDVGSIRMDGFATLYMDKLNALRGIYRGGEHEDEMVAFLRHCTFNLNPRAASIDTPLHAYVPAKHVDHMHPDAIIAIAAAKDSKKLTQEIFGDRIGWLPWKRPGYELGLWLSDFCEKNPDAKGVVLESHGLFTWADDARECYERTLEIIQTAMDWFAEQTAGKPAFGGALEHHHHHH”, the “soluble on expression in E. coli” value was “not soluble”.

Regarding “MRVRGIYATALVALALKKGYLLSDLSKTMLSRVEVPVSTRPPNITVKHGEESRDEIVIHAFPYEAGERFEADLLEEVGHAAVRRSLLGLRSVVDARAAEGCRAEGPGGVLIIVKGGECPQPGSMVRVTVVRSPPGSDVVEGRVGVELTGLTVRVMHPGSGVRISRHLTSEDAAKALKAVEASGIDLNQFSVHIRSGARLASEGDISDEIRRLAREAERLWREGPGGEPAVLSRGEYLSLVYLPSTAKHVMDGLRTSLYPTVNNHHSLKSWSSEAEGLLTDFAEEGVREGLWGGEAGDLIVRFISSRLVGRTAVVLHRRPDGETIRLGPFRVSSYRPSSGRGGEIVLERTFRSPGVYDGLGLERRPGDRGVTHVYMGDWLTIHEYYDKSGRLLGVYANINTPPEVGFQGLKYLDLLVDVVKRPGEEPETIDQGELEKACRSGLLTDRLCEEAARQAERASGLLQSRYP”, the “soluble on expression in E. coli” value is “not soluble”.

For the sequence “NLPDVQASKPSIAINLTRVGVTNMKKLVEIKRKDKRPIVLISTFDVFVDLPSDRKGANLSRNFEAVDEVLEKVLSTPVYEIEQLCSDIAHNLLGRHEYANQAEVRMKSEYMIRRASPSTGIKCQEVVNIFAEASAVRGNGDRDYFDVKKLIGAEVVGMTACPCAQEIMRDKAATELANLGVERDKIIKFLEKVPMATHNQRGRGIISIKVAHDFDVSLESIIKIIERSMSSSVYEVLKRSDEKVVVETAHMNPKFVEDCVRAMADNVVKEFPNLPDNAVITIKQTNEESI”, the “soluble on expression in E. coli” value was “not soluble”.

As to “MAHHHHHHMSLTDIEEAETVELLSEDSCSTMSASSEDVGATTVDTSLPLTANATEEQLRRRMLHECACIPELRPQPAWLEESGAAGDGPSASTTEMNWDVAHADHLVVAVRWRVAPTSPGTGCPSLHTTPWVPYAVPLAKVIASRTMAATDTASTVTSTTSSSGGGSSATVQPLGSVQLPLGRSMFLLAAQRSSLVPRAWDSGVAAESLVNVAASISRAQCTLHLHYAAAKTPQAPSSLRTRPVCRSFDVFAISPTTALLGIALQPHQRYHIKRKRGTGKSAHASEDQPCDANGVLTLRVGPYCHVDVALDELPSEPRVSGSAGTCPSITINTYNGRHAHTTRSGQTQDSPAVHRTSACRSGVAREPPAAAMQLQHGSTASLITGDSTAVLATLSEMSDHVALSETSGHEHDGPVVAGSQEVAAAPSHTSITGSLKRRRPAAARGRAAEAVVRRVGNAEAAEGGDVDEADAAVSHSVTTTPSEIVLFTTGMRLSDAEEKTLKELGALVNPHLRLARYARVLAAQRPLVRSVKLLTVLPYVQDVVHQSWLDAVLRTRSLDLPLEGFAYKERKLAGSIESENSFDLRETMRKAPTERQRLFAQQHFWVHKSATPQEPPMNDLKTVVAASGGIITRCVLDADVLVLPKHKPTLSCWRGIAQQLGGTGRASTSSASASTTPTLAQRKQAGVLFVVPDDIFKCVLQQRRLSASSVTLPWQLLTEAAAARGTTGAARVGRRPSQPTRKTPRASTTQRSPRRKSCKRSQ”, the “soluble on expression in E. coli” value is recorded as “soluble”.

As for “RMALSVLASSKEELFMPLLSQEAAHPDEWAGRLKNLSVNAEHAVTASLKNAEKAAVILGAEVQNHPDYAAVYAAAQELADATGAVLGILPQAANSVGADVLNVNSGKSVVEMVNAPKQAVLLLNVEPEIDTADGAKAVAALKQAKSVMAFTPFVSETLLDVCDVLLPIAPFTETSGSFINMEGRLQSFHGVVQGFGDSRPLWKVLRVLGNLFDLKGFEYHDTAAILKDALDVESLPSKLDNRNAWTGEGVQTTSDRLVRVGGVGIYHTDSIVRRSAPLQETSHAAVPAARVNPNTLARLGLQDGQTAVAKQNGASVSVAVKADAGLPENVVHLPLHTENAALGALMDTIELAGA”, the “soluble on expression in E. coli” value was “not soluble”.

For the sequence “MGSDKIHHHHHHMTRSEAQGRLTGLAPVSVIDIGSNSVRLVVYEGLSRAPAVLFNEKVLCGLGKGLALTGRMHEEGVTRALMALRRFHVLSEQAQAQKLYVLATAAAREAENGPDFIREAEAILGCEIEVLSGEKEALYSAYGVISGFYQPDGIAGDLGGGSLELIDIKDKSCGEGITLPLGGLRLSEQSDGSLEKAATIARKHVKSFAKLLAAGEGRTFYAVGGTWRNIAKLHMEISGYPLHMMQGYELPLEEMLNFLEEVIVSRDSKDPAWQAVSKNRRSLLPFGAIAMREVLRAMKPAKIAFSAQGVREGYLYSLLTEAERESDPLLVAADELAILRARSPEHARELADWSGRTFPVFGIDETEEESRYRQAACLLADISWRAHPDYRGLQALNIIAHSSFVAITHPGRAYIALANYYRFEGLNDNGTTEPLAAMAGERLQELGKLLGGLLRVVYLFSASMPGVVDHLKFRKSDNPDIDLEFVVPHDYCDFAGERLDGRLQQLAKLTGKRLAFVFE”, the “soluble on expression in E. coli” value was “not soluble”.

Take “MGSDKIHHHHHHMKRGLNLDQWVTWPGEDQWGDAKTILPYPEWRKFLGDDDLRALKGAGFDFLRMPVDPSPFLSDQTAALRDDLYASVLDSVRMINRAGLKVIVDMHLIPAGGSRKIGMAQVMDDPRTFDRYLDMVRKMARTLAGEDPEKVAFEPMNEPIVDCDSDGTSLWPDRQRELFAAARSSATKLTLVLTGACYSAASSLEKIDPKAISDDNVIWTFHSYDPFLLTHQGATWAGDFIPYVTGLPYPLNAVPKAQLDATLDIIRARIKAEAPWTRQSGLLAYLDEQVASMDSPDKLLGLMDAPFKKVEAWAKANGVKPENITLGEFGMIRQEYGNAYVMPAQYRAAYVRDMIARAEAHGFSWSVWSYGGAFGIVDAFNGDKGEPDVMDVIRSLH”: the “soluble on expression in E. coli” value is given as “not soluble”.

Turning to “MSLNAIARQEPFDLNDPALRARAVAAARGDAPFDMLITGGRLLDAVTGLIREADIGLVGALIASVHAPASRTDAVEIIDATGGILTPGLIDMHMHVESSMVTPAEYASAVLPHGVTTVVWDPHEFGNVQGLDGVRWAIEAARTLPLRMILLAPSCVPSAPGLELAGADFDAAVIAEMLRSPAVGGVAEVMNMRGVIDGDPRMSAIVNSGLASGKLVCGHARGLTGADLNAFMAAGVTSDHELTSGADLAAKLSAGLTIELRGSHDHLLQEFVEVLNGLGHLPATVTLCTDDVFPDELYQSGGLDEVARRLVRYGMKPEWALRAATFNAAQRLKRSDLGLVASGRRADLVLFEDLTELRARLVISDGRIVARNGSMEAAVQPLDTAPLINSTKLPPLTESDFRVPAKGARVRIATIDRPRFTQWGEAETEIRDGFVVPPAGSAMIAVAHRHGKAGGTPRIGFLTGWGEWRGAFCTTVSHDSHNLTVFGGDARDMALAANAVIKAGGGLAVAKDGAIQAILPLPLSGLVTDASLKDTASAFSDIRKAMDKIVDWKPPYRVFKACFGATLACNAGPHQTDRGIADVTTGKVLESPVLEIEGHHHHHH”, the “soluble on expression in E. coli” value is listed as “soluble”.

Consider “MAHHHHHHMMLKVRYENFNDLRNDDEMLNISFVAHPCYYSILDLEESELFNKIVYENFCKVAEKVDIYDKNEYLSVYRRHDKKCRELHMLKSWELLKNTYRYKMPVIFKNLKDFDLYNMEKIPFYSINYNKKKKGTKENGFVVRNKKKINIIDKGKCFILDNHMIYSMTPEYIANNISKNILLNTHHIMKGNNILSLKEDDKYVKHQKVNDNPYYFKLRYHYNDDDIYCKDNYSYKRKGISPIKKKRKIEPILYNNKKMDYEEKKRILIYLDPFAGAGGNCNHMNNIFTIGCDINFYRIKQCQHNCNFYNKNVDFILCDFFNLVTHFRKGTIDVIFFSIPWGGPKYKNKKNFELNTEIMDNISIYKCIEVSVELTENLVFYLPRNVCMKELYYLYGYYKELVKNKKCVNYENDDIYKYDRKGEGGKKKKKKKKKKILS”, for which the “soluble on expression in E. coli” value is “not soluble”.

Regarding “RQTHYLIHSDLGFRTRGVLWISNTVDSVPKGILRAELEKIPGVEKVSYACGNPIRYLNNMSFTKDGVNVSTWEMVVDSVFFDFFEISPIPLTDEPVETFFDREKMRAARIIPEWGNMKMINAVRPDPETGIFTQGDDDNDEVKYRMVGRIPDLKYKPLNMEQSPLQIRPLYAREQPWVTLVRASDEADKSAVLAAVSDTYKRVTGAEDIEPLWAEDIILDRYKSQTNLSQ”, the “soluble on expression in E. coli” value is recorded as “not soluble”.

Consider NLSVYNVQATNIPPKETLVYTKQTQTT, for which the “soluble on expression in E. coli” value is listed as “soluble”.

The values are drawn from the DeepSol protein solubility set.
